Data published in the nanobody polyreactivity screen of Harvey et al. (2022).

Assay: yeast display, Sf9 membrane polyspecificity reagent, FACS + sequencing; frameworks hold sequencing errors
Outline: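 Using colony PCR, genes from sorted yeast display clones were amplified, then sequenced on MiSeq at 2 × 250 and filtered by CDR length. The clones had been stained with 10% biotinylated, detergent-solubilized Sf9 membrane reagent for 1 hour at 4 °C and sorted by FACS into low and high (top ~1%) gates on anti-HA and streptavidin fluorescence. Polyreactivity labels come from the gate of origin.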

Row | Sequence | polyreactivity (PSR sort gate)
1 | QVQLVESGGGLVQAGGSLRLSCAASGSTFGYYAMGWYRQAHGKERELVAAITSGGSTNYADSVKGRFTISRDNAKNTVYLQMNSLKPEDTAVYYCAAADSYRYHLRRYNYWGQGTQVTVSS | low polyreactivity
2 | QVQLVESGGGLVQAGGSLRLSCAASGSTFGYYAMGWYRQAPGKERELVAAISYRSGSTYYADSVNGRFTISRDNAKNTVYLQMNSLKPEDTAVYYCAPVIQRQQRYEYWGQGTQVTVSS | high polyreactivity
3 | QVQLVESGGGLVQAGGSLRLSCAASGSTFGYYAMGWYRQAPGKERELVAAITGSGGCTYYADSVKGRFTISRDNAKNTVYLQMNSLKPEDTAVYYCATPTKFVRDDYWGQGTQVTVSS | low polyreactivity
4 | QVQLVESGGGLVQAGGSLRLSCAASGSTFGYYAMGWYRQAPGKERELVAAITRGASTYYADSVNGRFTISRDNAKNTVYLQMNSLKPDDTAVYYCAFDTWKVQGASSRYRKMYYWGQGTQVTVSS | low polyreactivity
5 | QVQLVESGGGLVQAGGSLRLSCAASGSTFGYYAMGWYRQAPGKERELVASITWGGGSTYYADSVKGRFTISRDNAKNTVYLQMNSLNPEDTAVYYCAATILGGTWGYGSYTYYYWGQGTQVTVSS | low polyreactivity
6 | QVQLVESGGGLVQAGGSLRLSCAASGSTFGYYAMGWYRQAPGKERELVATMSATGGSTYYADSVKGRFTISRDKAKNTVYLQMNSLKPEDTAVYYCNAEYDRGNEYDYWGQGTQVTVSS | low polyreactivity
7 | QVQLVESGGGLVQAGGSLRLSCAASGSTFGYYAMGWYRQAPGKERELVAVITRGGSTYYADSVKGRFTISRDNAKNTVYLQLNSLKPEDTAVYYCNARVQAVHYGYWGQGTQVTVSS | high polyreactivity
8 | QVQLVESGGGLVQAGGSLRLSCAASGSTFGYYAMGWYRQAPGKEREVVAALDSSGDTYYADSVKGRFTISRDNAKNTVYFQMNSLKPEDTAVYYCAADFWVSSYWGYGYWGQGTQVTVSS | high polyreactivity
9 | QVQLVESGGGLVQAGGSLRLSCAASGSTFGYYAMGWYRQAPGKESELVATINWSGGSTYYADSVKGRFTISRDNAKNTVYLQMNSLKPEDTAVYYCAADPYLQYYWAYDYWGQGTQVTVSS | low polyreactivity
10 | QVQLVESGGGLVQAGGSLRLSCAASGSTFGYYAMGWYRQATGKERELVAAISSGGSTSYADSVKGRFTISRDNAKNTVYLQMNSLKPEDTAVYYCNTSYRKKKRYYYWGQGTQVTVSS | high polyreactivity
11 | QVQLVESGGGLVQAGGSLRLSCAASGSTFGYYAMGWYRQEPGKERELVAAISRGSSTYYADSVKGRFTISRDNAKNTVYLQMNSLKPEDTAVYYCAAKRYAYGSLDYWGQGTQVTVSS | high polyreactivity
12 | QVQLVESGGGLVQAGGSLRLSCAASGSTFGYYAMRWYRQAPGKERELVAAIRSSGGGTYYADSVKGRFTISRDNAKNTVYLQMNSLKPEDTAVYYCATDAPILVNAEYDEWLEYDYWGQGTQVTVSS | low polyreactivity
13 | QVQLVESGGGLVQAGGSLRLSCAASGSTFGYYGMGWYRQAPGKERELVASIDSRGDSTYADSVKGRFTISRDNAKNTVYLQMNSLKPEDTAVYYCAADSWYSWFDSWGQGTQVTVSS | low polyreactivity
14 | QVQLVESGGGLVQAGGSLRLSCAASGSTFGYYTMGWYREAPGKERELVAAISWSGGSTYYADSVKGRFTISRDNAKNTVYLQMNSLKPEDTAVYYCAALGYTYKYYSYYWGQGTQVTVSS | high polyreactivity
15 | QVQLVESGGGLVQAGGSLRLSCAASGSTFGYYTMGWYRQAPGKERELVAALTWSGGSTYYADSVKGRFTISRDNAKNTVYLQMNSLKPEDTAVYYCAADDYWTPFGYWGQGSQVTVSS | low polyreactivity
16 | QVQLVESGGGLVQAGGSLRLSCAASGSTFGYYTMGWYRQAPGKERELVASISWSGASTHYADSVKGRFTISRDNAKNTVYLPMNRLKPEDTAVYYCAADSYPAYLGFVGFDYWGQGTQVTVSS | low polyreactivity
17 | QVQLVESGGGLVQAGGSLRLSCAASGSTFGYYTMGWYRQEPVKETELVAAISYSGGRTFYADSVKGRFTISRDNAKNSVYLQMKSLKTEDTEVYYCNKRYIPSYLSHLDYWGQGTQVTVSS | high polyreactivity
18 | QVQLVESGGGLVQAGGSLRLSCAASGSTFHKYTMGWYRQAPGKEREFVAAITRNGGTTSYADSVKGRFTISRDNAKNTVYLQMNSLKPEDTAVYYCAVKWRRQINYDYWGQGTQVTVSS | high polyreactivity
19 | QVQLVESGGGLVQAGGSLRLSCAASGSTFHLNAMGWYIQAPGKERELVAAISLSGGSTYYADSVKGRFTISRDHAKNTVYLQMNSLKPEYTAVYYCAAEQWYDNYLEYDYWGQGTEVTVSS | high polyreactivity
20 | QVQLVESGGGLVQAGGSLRLSCAASGSTFHLNAMGWYRQAPGKERELVAAISWDGSSTSYADSVKGRFTISRDNAKNTVYLQMNSLKPEDTAVYYCAKRSSGVSVPVAYGGIKRYNSWGQGTQVTVSS | low polyreactivity
21 | QVQLVESGGGLVQAGGSLRLSCAASGSTFHNYAMGWYRQAPGKERELVAGISVRGGGTYYADSVKGRFTISRDNAKNNVYLQMNSLKPEDTAVYYCAKRSRYYYRYDYWGQGSQVTVSS | high polyreactivity
22 | QVQLVESGGGLVQAGGSLRLSCAASGSTFHPYAMGWYIQAPGKERELVAAITWRVGSTYYADSVKGRFTISRDNAKNTVYLQMNSLKPEDTAVFYCAVSYLSSLGRSRYDYWGQGTQVTVSS | low polyreactivity

Row | Sequence | polyreactivity (PSR sort gate)
23 | QVQLVESGGGLVQAGGSLRLSCAASGSTFHRNAMGWYRQAPGKERELVAAITSGGSTNYADSEKGRFTISRDNAKNTVYLQMNRLKPEDTPVYYCAKDDRHYNRGWYDYWGQGTQVTVSS | low polyreactivity
24 | QVQLVESGGGLVQAGGSLRLSCAASGSTFHSNAMGWYRQAPGKERELVAAISQGGGRTYYADSVKGRFTISRDNAKNTVYLQMNSLKPEDTAVYYCNRRTRGLIDGGMDYWGQGTQVTVSS | low polyreactivity
25 | QVQLVESGGGLVQAGGSLRLSCAASGSTFHTNSMGGYRQAPGKETELVAAIRSGGGTNYADSVKGRFTISRDNAKNTVYLQMNSLKPEDTAVYYCNASPLPYSHRGDYWGQGTQVTVSS | low polyreactivity
26 | QVQLVESGGGLVQAGGSLRLSCAASGSTFHVNAMGWYRQAPGKEREFGAVISSSAGRTYYADSVKGRFTISRDNAKNTVYLQMNSLKPEDTAVYYCAAGTFKPYWRKFEYWGQGTQVTVSS | high polyreactivity
27 | QVQLVESGGGLVQAGGSLRLSCAASGSTFHYYAMGWYRQAPGKERELVAAIRTSGGSTYYADSVKGRFTISRDNAKNTVYLQMNSLKPEDTAVYYCNRVLGYPYGVDYWGQGTQVTVSS | high polyreactivity
28 | QVQLVESGGGLVQAGGSLRLSCAASGSTFHYYAMGWYRQAPGKERELVAAISGSGSSTYYADSVKGRFTISRDNAKNTVYLQMNRLKPEDTAVYYCNARGHYPRARFGYKSGSDRYWGQGTQVTVSS | high polyreactivity
29 | QVQLVESGGGLVQAGGSLRLSCAASGSTFHYYAMGWYRQAPGKERELVAAISKRGTSTYYADSVKGRFTISRDNAKNTVYLQMNSLKPEDTSVYYCNRYPIRYKHRGLDYWGHGTQVTVSS | high polyreactivity
30 | QVQLVESGGGLVQAGGSLRLSCAASGSTFHYYAMGWYRQAPGKERELVATITWRGGFTYYADSVKGRFTISRDNAKNTVYLQMNSLKPEDTAGYYCTDYSVRRYRDPRLYYWGQGTQVTVSS | high polyreactivity
31 | QVQLVESGGGLVQAGGSLRLSCAASGSTFHYYARGWYRQAPGKERELVAAISQSGSGTYYADSVKGRFTISRDYAKNTVYLQMNSLKPEDTAVYYCAKDITGLSRYRRDYWGQGTQVTVSS | low polyreactivity
32 | QVQLVESGGGLVQAGGSLRLSCAASGSTFIFNAMGWYRQAPGKERELVAGISSGSPYYADSVKGRFTISRDNAKNTVYLQMNSLIPEDTAVYYCATKLRRWRFYAAYDYWGQGTQVTVSS | high polyreactivity
33 | QVQLVESGGGLVQAGGSLRLSCAASGSTFIFYTMGWYRQAPGKERELVAAITSNGGSTYYADSVKGRFTISRDNAKNTVYFQMNSLKPEDTAVYYCARVDRWRRYRYIFSGYDYWGQGTQVTVSS | high polyreactivity
34 | QVQLVESGGGLVQAGGSLRLSCAASGSTFIIYAMGWYRQAPGKERELVAAISWSGGSTYYADSVKGRFTISRDNAKNTVYLQMNSLKPEDTAVYYCAVVYRTRWSDYDYWGQGTQVTVSS | high polyreactivity
35 | QVQLVESGGGLVQAGGSLRLSCAASGSTFIKYTMGWYRQAPGKERELVAAISVRGGSTTYADSVKGRFTISRDNAKNTVYLQRNSLKPEDTAVYYCAKDHYYAGTWRYGYWGQGTQVTVSS | high polyreactivity
36 | QVQLVESGGGLVQAGGSLRLSCAASGSTFILYAMGCYIQAPGKERELVAAITASGGSTYADSVKGRFTISRDNSKNTVYLQMNSLKPEDSAVYYCAARRWSSKYRKYDYWGQGTQVTVSS | high polyreactivity
37 | QVQLVESGGGLVQAGGSLRLSCAASGSTFIPYTMGWYRQAPGKERELVAAISGRGGRTYYADSVKGRFTISRDNAKNTVYLQMNSLKPEDTAVYYCNRVLRYGPSAQYDYWGQGTQVTVSS | high polyreactivity
38 | QVQLVESGGGLVQAGGSLRLSCAASGSTFIRYAMGWYRQAPGKERELVAAITSGGRTNYADSVKGRFTISRDNAKNTVYLQMNSLKPEDTAVYYCAKLRWVYGRQTLMDYWGQGTQVTVSS | high polyreactivity
39 | QVQLVESGGGLVQAGGSLRLSCAASGSTFISNTMGWYRQAPGKERELVAGISSIGGITYYADSVKGRFTISRDNAKNTVYLQMNSLKPEDTAVYYCAKLDVISDDLDYWGQGTQVTVSS | low polyreactivity
40 | QVQLVESGGGLVQAGGSLRLSCAASGSTFITNAMGGYRQAPGKERELVATISRSGGRTYYADSVKGRFTISRDNAKNSVYLEMNSLNPEDTAVFYCAKRYGSKFEYWGLGTQVTVSS | high polyreactivity
41 | QVQLVESGGGLVQAGGSLRLSCAASGSTFITNTMGWYRQAPGKERELVAAISKSGGSTYYADSVKGRFTISRDNAKNTVYLKMNSLKAEDTAVYYCAADIYVRDRGVKYDYWRQGTQVTVSS | low polyreactivity
42 | QVQLVESGGGLVQAGGSLRLSCAASGSTFIVYAMGWYRQAPGKERELVAAISLDGGSTYYADSVKGRFTISRDNAKNTVYLQMNSLKPEDTAVYYCNADYYANSITYDSWGQGTQVTVSS | low polyreactivity
43 | QVQLVESGGGLVQAGGSLRLSCAASGSTFIVYAMGWYRQAPGKERELVAAITRGGSTNYADSVKGRFTISRDNAKNTVYLQMNSLKPEDTAVYYCAAPYAGWRDGGDYWGQGTQVTVSS | low polyreactivity
